No end group written: not given here.

What all share (assay): cell-based or functional assay
One assay deals with T1, YFP-degronSwitcha.
T1 sequence: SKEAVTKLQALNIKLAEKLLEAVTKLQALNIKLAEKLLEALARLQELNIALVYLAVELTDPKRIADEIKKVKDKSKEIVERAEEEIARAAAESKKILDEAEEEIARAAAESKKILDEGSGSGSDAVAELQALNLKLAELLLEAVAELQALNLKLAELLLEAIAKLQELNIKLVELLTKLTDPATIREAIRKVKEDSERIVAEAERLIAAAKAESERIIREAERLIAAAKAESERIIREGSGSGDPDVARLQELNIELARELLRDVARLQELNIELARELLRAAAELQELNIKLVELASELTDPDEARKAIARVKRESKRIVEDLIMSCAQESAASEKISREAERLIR

Assay [1] deals with T2, dCas9-VP64-RFP-degronSwitcha.
T2 sequence: T1 sequence

A further assay addresses SynTF-RFP-degronSwitcha.

B1: Keya-BFP (designed binder, not shown: large carriers)
chain: EARKAIARVKRESKRIVEDAERLIREAAAASEKISREAERLIREAAAASEKISRE
modifications: not fully specified (C-terminus); also: linker to BFP not given here
B1 registered a YFP fluorescence at steady state, flow cytometry, S. cerevisiae with YFP-degronSwitcha of less than 73%. In addition, in assay [1], the decrease in RFP fluorescence at 31.25 nM E2, flow cytometry, S. cerevisiae was 78% and the decrease in pTet7x-YFP reporter fluorescence at 31.25 nM E2, flow cytometry, S. cerevisiae is 41%.

B2: keya-BFP-NLS (designed binder, not shown: large carriers)
chain: B1 chain
modifications: not fully specified (C-terminus); also: BFP and NLS sequences not given here
For B2, in the assay with SynTF-RFP-degronSwitcha, the decrease in RFP fluorescence at 31.25 nM E2, flow cytometry, S. cerevisiae is 61% and the decrease in pSynTF-YFP reporter fluorescence at 31.25 nM E2, flow cytometry, S. cerevisiae stood at 82%.

The values above are taken from patent US20220119467A1.
